Patent publication US20080199879A1

How the values were obtained:
[1] = target: Aβ1-42 synthetic peptide (produced by Peptide Institute, Inc.); assay: electrochemiluminescence double antibody sandwich; 21F12 beads, ruthenium-labeled 3D6 detection; untreated Aβ1-42 control sample
[2] = target: Aβ1-42 synthetic peptide (produced by Peptide Institute, Inc.); assay: competitive electrochemiluminescence immunoassay, no competitor: ruthenium-labeled 21F12 (0.1 µg/ml) bound to bead-bound Aβ1-42
[3] = target: enzyme degradation product of the Aβ1-42 synthetic peptide (trypsin treated Aβ1-42 synthetic peptide); assay: electrochemiluminescence double antibody sandwich; 21F12 beads, ruthenium-labeled 3D6 detection; trypsin-treated Aβ1-42 sample
[4] = target: Aβ1-42 synthetic peptide (produced by Peptide Institute, Inc.); assay: electrochemiluminescence double antibody sandwich; 21F12 on magnetic beads, ruthenium-labeled 3D6 detection; Aβ1-42 at 0.5 pg/mL
[5] = target: Aβ1-42 synthetic peptide (produced by Peptide Institute, Inc.); assay: electrochemiluminescence double antibody sandwich; 21F12 on magnetic beads, ruthenium-labeled 3D6 detection; Aβ1-42 at 100 pg/mL
[6] = target: Aβ1-42 synthetic peptide (produced by Peptide Institute, Inc.); assay: electrochemiluminescence double antibody sandwich; 21F12 on magnetic beads, ruthenium-labeled 3D6 detection; Aβ1-42 at 50 pg/mL
[7] = target: 15 L-β33-42 peptide+ruthenium complex-labeled polylysine-bound substance; assay: competitive electrochemiluminescence immunoassay, no competitor: labeled peptide composite (1 µg/ml) bound to bead-bound 21F12
[8] = target: Aβ1-42 synthetic peptide (produced by Peptide Institute, Inc.); assay: electrochemiluminescence double antibody sandwich; 21F12 on magnetic beads, ruthenium-labeled 3D6 detection; Aβ1-42 at 5 pg/mL
[9] = target: Aβ1-42 synthetic peptide (produced by Peptide Institute, Inc.); assay: electrochemiluminescence double antibody sandwich; 21F12 on magnetic beads, ruthenium-labeled 3D6 detection; Aβ1-42 at 1 pg/mL
[10] = target: Aβ1-42 synthetic peptide (produced by Peptide Institute, Inc.); assay: electrochemiluminescence double antibody sandwich; 21F12 on magnetic beads, ruthenium-labeled 3D6 detection; Aβ1-42 at 25 pg/mL
[11] = target: enzyme degradation product of the Aβ1-42 synthetic peptide (trypsin treated Aβ1-42 synthetic peptide); assay: electrochemiluminescence double antibody sandwich; 21F12 beads, ruthenium-labeled 3D6 detection; trypsin-treated Aβ1-42 sample against untreated control
[12] = target: Aβ1-42 synthetic peptide (produced by Peptide Institute, Inc.); assay: electrochemiluminescence double antibody sandwich; 21F12 on magnetic beads, ruthenium-labeled 3D6 detection; Aβ1-42 at 10 pg/mL
[13] = target: 15 L-β33-42 peptide+ruthenium complex-labeled polylysine-bound substance; assay: competitive electrochemiluminescence immunoassay, no competitor: labeled peptide composite bound to bead-bound 21F12

Chain of 15 L-β33-42 peptide+ruthenium complex-labeled polylysine-bound substance (peptide, as listed by the source): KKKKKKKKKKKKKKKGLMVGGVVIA

ECL value [1]: 12800
ECL value [2]: 34400
ECL value [3]: 1090
Difference from the blank (ECL value) [4]: 614
ECL value [4]: 1080
Difference from the blank (ECL value) [5]: 345000
ECL value [5]: 345000
Difference from the blank (ECL value) [6]: 160000
ECL value [6]: 160000
ECL value [7]: 17000
Difference from the blank (ECL value) [8]: 10300
ECL value [8]: 10800
Difference from the blank (ECL value) [9]: 1370
ECL value [9]: 1840
Difference from the blank (ECL value) [10]: 75300
ECL value [10]: 75800
% (relative ratio of measured value, control sample = 100%) [11]: 9%
Difference from the blank (ECL value) [12]: 22400
ECL value [12]: 22900
ECL value [13]: 18100
Substance: 21F12 mouse monoclonal antibody (produced by Innogenetics Inc.)
